Results reported in patent US20200385445A1 (COMPUGEN, published 2020).

T1: human PVRIG (Poliovirus Receptor Related Immunoglobulin Domain Containing Protein), full length on cells (human, UniProt Q6DKI7 41-326)
T1 construct: whole, on cells; Over-expressed on HEK293 (some pools flag-tagged) or endogenous on Jurkat, CA46, T cells, NK cells, TILs; also called hPVRIG; HEK hPVRIG
T1 sequence (looked up): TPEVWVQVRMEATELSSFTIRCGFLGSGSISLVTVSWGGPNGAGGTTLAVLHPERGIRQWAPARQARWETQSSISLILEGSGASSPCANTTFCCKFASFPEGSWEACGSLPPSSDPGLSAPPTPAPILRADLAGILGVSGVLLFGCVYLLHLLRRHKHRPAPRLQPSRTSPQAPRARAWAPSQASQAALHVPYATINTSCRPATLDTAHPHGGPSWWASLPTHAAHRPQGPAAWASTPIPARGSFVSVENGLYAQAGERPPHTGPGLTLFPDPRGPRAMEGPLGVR

T2: human PVRL2-His (Catalog #2229-N2-050/CF, R&D Systems) (human, UniProt Q92692 32-360)
T2 construct: Bought (R&D Systems); also called His-tagged PVRL2 recombinant protein; PVRL2 (CD112)
T2 sequence (looked up): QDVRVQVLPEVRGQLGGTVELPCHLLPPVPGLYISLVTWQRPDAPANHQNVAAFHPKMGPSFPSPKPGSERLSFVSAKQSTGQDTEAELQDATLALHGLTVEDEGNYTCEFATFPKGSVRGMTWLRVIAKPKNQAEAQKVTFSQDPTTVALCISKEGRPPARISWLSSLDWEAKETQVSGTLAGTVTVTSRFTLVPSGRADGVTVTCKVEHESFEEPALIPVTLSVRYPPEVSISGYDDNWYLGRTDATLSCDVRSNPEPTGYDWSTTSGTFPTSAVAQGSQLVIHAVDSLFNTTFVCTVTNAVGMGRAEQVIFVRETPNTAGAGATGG

B1: Anti-human PVRIG - CPA.7.021, Human IgG2, conjugated to AF-647 (antibody, V domains shown)
VH: EVQLVESGGGVVKPGGSLRLSCAASGFTFGTSSMNWVRQAPGKGLEWVAVISFDGTEIHYADSVKGRFTISRDNSKSTVFLQMNSLRPDDTALYYCAKGSGNIYFYSGMDVWGQGTTVTVSS
VL: DIQMTQSPSTLSASVGDRVTITCRAGQSISGWLAWFQQKPGKAPNLLIYETSTLESGVPSRFSGSGSGTEYTLTISSLQPDDFATYYCQQYYSYPLTFGQGTKVEIK
modifications: Alexa Fluor 647 dye conjugated to the antibody (site not stated).
notes: also called Anti PVRIG-CPA.7.021 ab; CPA.7.021 IgG2 A647
B2: CPA.7.019 human IgG1 (antibody, V domains shown)
VH: QVQLQESGPGLVKSSETLSLTCSVSGGSISNSNYYWGWIRQPPGKGLEWIGGIYYSGSTYYNPSLESRVTISEDTSKNQISLKLSSVTAADTAVYYCARGAWELSLGDWFDPWGPGTLVTVSS
VL: QSVLTQPPSVSGAPGQRVTISCTGSSSNIGAGYDIQWYQQLPGTAPKLLIYGNNNRPSGVPDRFSGSRSGTSASLAITGLQAEDEADYYCQSYDSSLSVYVVFGGGTQLTVLG
B3: CPA.7.018 human IgG1 (antibody, V domains shown)
VH: EVQLVQSGAEVKKPGASVKVSCKVSGYTLTELSMHWVRQAPGKGLEWMGGFDPEDGETIYAQKFQGRVTMTEDTSTDTAYMELSSLRSEDTAVYYCATEVPMVRGARRYYYYMDVWGKGTTVTVSS
VL: DVVMTQSPLFLAVTPGEPASISCRSSQTLLYINENNYLDWYVQKPGQSPQLLIYLGSTRASGVPDRFSGGGSGTDFTLTISRVEAEDVGLYYCMQGLQTPPTFGQGTRLEIKR
B4: CPA.7.034 human IgG1 (antibody, V domains shown)
VH: EVQLVQSGAEVKKPGASVKVSCKVSGYTLTELSMHWVRQAPGKGLEWMGGFDPEDGETIYAQKFQGRVTMTEDTSTDTAYMELSSLRSEDTAVYYCATEDPGPVAGPYYYYGMDVWGQGTTVTVSS
VL: DVVMTQSPLVLPVTPGEPASISCRSSQSLLYINGYHYLDWYVQRPGQSPQLLIFLGSTRASGVPDRFSGSGSGTDFTLEISKVEAEDVGIYFCMQALQTPPTFGGGTKVEIKR
notes: also called CPA.7.34
B5: CPA.7.022 human IgG1 (antibody, V domains shown)
VH: EVQLVQSGAEVKKPGASVKVSCKVSGYTLTELSMHWVRQAPGKGLEWMGGFDPEDGETIYAQKFQGRVTMTEDTSTDTAYMELSSLRSEDTAVYYCATGVPAAIGVYYYYYYMDVWGKGTTVTVSS
VL: DVVMTQSPLSLPVTPGEPASISCRSSQSLLYSNGYNYLDWYLQKPGQSPQLLISLGSNRASGVPDRFSGSGSGTDFTLKISRVEAEDVGVYYCMQALQSPVTFGGGTKVEIKR
B6: CPA.7.040 human IgG1 (antibody, V domains shown)
VH: EVQLVQSGAEVKKPGASVKVSCKVSGYTLTELSMHWVRQAPGKGLEWMGGFDPEDGETIYAQKFQGRVTMTEDTSTDTAYMELSSLRSEDTAVYYCATGVPAAIGVYYYYYYMDVWGKGTTVTVSS
VL: DVVMTQSPLSLPVTPGEPASISCRSSQSLLYRNGYNYLDWYLQKPGQSPQLLIYWGSYRASGVPDRFSGSGSGTDFTLKISRVEAEDVGVYYCMQAVQNPPTFGQGTKVDIKR
B7: CPA.7.050 human IgG1 (antibody, V domains shown)
VH: EVQLVQSGAEVKKPGSSVKVSCKASGGTFSSYAISWVRQAPGQGLEWMGGIIPIFGTANYAQKFQGRVTITADKSTSTAYMELSSLRSEDTAVYYCARGPWYYDSSGYSSYAYYMDVWGQGTTVTVSS
VL: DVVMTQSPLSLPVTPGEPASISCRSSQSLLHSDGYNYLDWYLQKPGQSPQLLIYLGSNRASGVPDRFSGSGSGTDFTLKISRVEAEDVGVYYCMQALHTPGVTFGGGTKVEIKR
notes: also called CPA.7.50
B8: CPA.7.017 human IgG1 (antibody, V domains shown)
VH: QVQLVQSGAEVKKPGSSVKVSCKASGGTFNNYGISWVRQAPGKGLEWMGQIIPLFGTTKYAQKFQGRVTIAADEPTSTAYMELGSLRSEDTAIYYCARDRMAADGMAVFDYWGQGTLVTVSS
VL: QSVLTQPPSVSGTPGQKVIISCSGSSSNIGRHFVFWYQQLPGTAPKLLIYKNDERPSGVPDRFSGSKSGTSASLAVSGLRSEDEADYYCSSWDAALNGVVFGGGTKLTVLG
B9: CPA.7.023 human IgG1 (antibody, V domains shown)
VH: EVQLVQSGAEVKKPGASVKVSCKVSGYTLTELSMHWVRQAPGKGLEWMGGFDPEDGETIYAQKFQGRVTMTEDTSTDTAYMELSSLRSEDTAVYYCATDSRDGPAARGGYYYYMDVWGQGTTVTVSS
VL: DVVMTQSPLSLPVTLGQPASISCRSSQSLLYINGYNYLDWYLQKPGQSPQLLIYLGSNRASGVPDRFSGSGSGTDFTLKISRVEAEDVGVYYCMQALQTPPTFGQGTKVEIKR
B10: CPA.7.024 human IgG1 (antibody, V domains shown)
VH: EVQLVQSGAEVKKPGSSVKVSCKASGGTFSSYAISWVRQAPGQGLEWMGGIIPIFGTANYAQKFQGRVTITADESTSTAYMELSSLRSEDTAVYYCARDAYYYDSSGYYNPDAFDIWGQGTMVTVSS
VL: DVVMTQSPLSLPVTPGEPASISCRSSQSLLHSNGYNYLDWYLQKPGQSPQLLIYLGSSRASGVPDRFSGSVSGTDFTLKISRVEAEDVGVYYCMQGLQTPRTFGRGTKLEIKR
B11: CPA.7.033 human IgG1 (antibody, V domains shown)
VH: QVQLVQSGAEVKKPGSSVKVSCKASGGTFSSSAISWVRQAPGQGFEWMGGIIPIYGITDYAQKFQGRVTITTDESTSTAYMELSSLTSEDTAVYYCARDDTARRVRGVPYYYYYAMDVWGQGTTVTVSS
VL: ETTLTQSPAFMSATPGDEVNISCKASQDIDDDVSWYQQKPGGAPIFLIQEASTLVPGIPPRFSGSGFGTDFTLTIKNMESEDAAYYFCLQHDNLPLTFGGGTKVDIKR
B12: CPA.7.038 human IgG1 (antibody, V domains shown)
VH: QVQLVQSGAEVKKPGSSVKVSCKASGGTFSSSAISWVRQAPGQGFEWMGGIIPIYGITDYAQKFQGRVTITTDESTSTAYMELSSLTSEDTAVYYCARDDTARRVRGVPYYYYYAMDVWGQGTTVTVSS
VL: DIQMTQSPSSLSASVGDRVTITCQASRDISDSLSWYQQKPGKAPKLLIFDASNLKTGVSSRFSGSGSGTDFTFTISSLQPEDIATYYCHQYDNLPLTFGGGTKVEIKR
B13: CPA.7.036 human IgG1 (antibody, V domains shown)
VH: QVQLVQSGAEVKKPGSSVKVSCKASGGTFSSSAISWVRQAPGQGFEWMGGIIPIYGITDYAQKFQGRVTITTDESTSTAYMELSSLTSEDTAVYYCARDDTARRVRGVPYYYYYAMDVWGQGTTVTVSS
VL: DIVMTQTPLSLPVTPGEPASISCRPSQSLLDSDDGNTYLDWYLQKPGQSPQLLIHTLSYRASGVPDRFSGSGSGTDFTLKISRVEAEDVGVYYCMQRLQFPLTFGGGTKVEIKR
notes: also called CPA.7.36
B14: CPA.7.049 human IgG1 (antibody, V domains shown)
VH: QMQLVQSGAEVKKPGSSVKVSCKASGGTFSSSAISWVRQAPGQGFEWMGGIIPIYGITDYAQKFQGRVTITTDESTSTAYMELSSLTSEDTAVYYCARDDTARRVRGVPYYYYYAMDVWGQGTTVTVSS
VL: DIVMTQTPLSLPVTPGEPASMSCRSSRSLLDSDDGNTHLDWYLQKPGQSPQLLIQSLSYRASGVPDRFSGSGSGTDFTLEISRVEAEDVGIYYCMQRKEFPLTFGGGTKVEIKR
B15: human DNAM-1 fusion protein (human fc, R&D Systems) (Fc fusion, UniProt Q15762 19-247, looked up, not shown: a dimerising Fc or GST)
chain: EEVLWHTSVPFAENMSLECVYPSMGILTQVEWFKIGTQQDSIAIFSPTHGMVIRKPYAERVYFLNSTMASNNMTLFFRNASEDDVGYYSCSLYTYPQGTWQKVIQVVQSDSFEAAVPSNSHIVSEPGKNVTLTCQPQMTWPVQAVRWEKIQPRQIDLLTYCNLVHGRNFTSKFPRQIVSNCSHGRWSVIVIPDVTVSDSGLYRCYLQASAGENETFVMRLTVAEGKTDN
notes: Bought
B16: CPA.7.021 IgG conjugated with Alexa 647 (antibody, V domains shown)
VH: EVQLVESGGGVVKPGGSLRLSCAASGFTFGTSSMNWVRQAPGKGLEWVAVISFDGTEIHYADSVKGRFTISRDNSKSTVFLQMNSLRPDDTALYYCAKGSGNIYFYSGMDVWGQGTTVTVSS
VL: DIQMTQSPSTLSASVGDRVTITCRAGQSISGWLAWFQQKPGKAPNLLIYETSTLESGVPSRFSGSGSGTEYTLTISSLQPDDFATYYCQQYYSYPLTFGQGTKVEIK
modifications: Alexa Fluor 647 dye conjugated to the antibody (site not stated).
notes: also called Alexa647 labelled CPA.7.021 IgG; conjugated CPA.7.021

What follows are binders tested against T1, human PVRIG (Poliovirus Receptor …) (assay: FACS on resting human CD4+ T cells).
For B1, the “fold staining over isotype control” value was 3 fold.

These binders were tested against T1, human PVRIG (Poliovirus Receptor …) (assay: FACS on CD4+ T cells, days 3-6 of activation).
For B1, the “fold staining over isotype control” value was 2 to 3 fold.

The binders below were run against T1, human PVRIG (Poliovirus Receptor …) (assay: FACS dose titration on PVRIG over-expressing HEK293 cells).
Method: FACS screening of the reformatted antibodies was done similarly to the PPE based screen described herein, except that a dose-dependent titration of the purified antibodies was performed. The human PVRIG over-expressing HEK293 cells, or the un-transfected HEK293 cells, were incubated with varying concentrations (0-10 μg/ml) of the anti PVRIG antibodies or isotype controls in FACS buffer at 4° C. for 60 mins. […] Cells were washed twice and re-suspended in a final volume of 80 μl of FACS buffer and Propidium Iodide (Biolegend cat #421301) diluted 1:1000. Samples were analyzed using an Intellicyt HTFC screening system (Intellicyt). Data was analyzed using FlowJo (DeNovo), exported to Excel (Microsoft) and plotted in GraphPad Prism (GraphPad Software, Inc.).
All unique ELISA and FACS binders were reformatted for expression as human IgG1 molecules in Expi293 cells. […] These reformatted antibodies were tested for retained binding to PVRIG over-expressing HEK293 cells alongside an irrelevant human IgG1 isotype control. All antibodies were also tested against un-transfected HEK293 cells.
B2 showed a Kd of 0.45 nM.
With B3 the Kd was 9.29 nM.
In the case of B4, the Kd is reported as 14.2 nM.
B5 showed a Kd of 4.17 nM.
Work on B6 yielded a Kd of 0.79 nM.
B7 showed a Kd of 68.3 nM.
In the case of B8, the Kd is reported as 1.82 nM.
B9 was tested, and the Kd was 4.08 nM.
B10 gave a Kd of 9.08 nM.
B11 showed a Kd of 12.8 nM.
B12 showed a Kd of 20.3 nM.
B13 showed a Kd of 6 nM.
B14 was tested, and the Kd was 19.9 nM.

What follows are binders tested against T2, human PVRL2-His (Catalog …) (assay: SPR ProteOn, analyte over Fc-captured ligand; complex kinetics).
B15: binds.

The binders below were run against T1, human PVRIG (Poliovirus Receptor …) (assay: flow cytometry, Alexa 647 IgG titrated on HEK 293 cells expressing human PVRIG, 1:1 equilibrium fit).
For B16, the Kd was 2.5 nM.
